# Data published in PMC5481773 (2017).
# B1: p21 PIP box peptide used for ITC (peptide)
# chain: RKRRQTSMTDFYHSK
# modifications: Exact limits are in the supplement. Window is the 15-mer homologous to ZRANB3 515-529, aligned on Q144. Check residues are not named in the paper. Termini chemistry not stated.
# B2: FEN1 PIP box peptide used for ITC (peptide)
# chain: QGSTQGRLDDFFKVT
# modifications: Exact limits are in the supplement. Window is the 15-mer homologous to ZRANB3 515-529, aligned on Q337. Termini chemistry not stated.
# B3: Polι PIP box peptide used for ITC (peptide)
# chain: NTAKKGLIDYYLMPS
# modifications: Exact limits are in the supplement. Window is the 15-mer homologous to ZRANB3 515-529 (equal lengths stated); the PIP box KGLIDYYL is 421-428 in 715-aa numbering, +25 in the 740-aa entry. Check residues are not named in the paper. Termini chemistry not stated.
# Molecular target: His-tagged Proliferating Cell Nuclear Antigen (PCNA) (human, UniProt P12004 1-261)
# Sequence (P12004 whole entry): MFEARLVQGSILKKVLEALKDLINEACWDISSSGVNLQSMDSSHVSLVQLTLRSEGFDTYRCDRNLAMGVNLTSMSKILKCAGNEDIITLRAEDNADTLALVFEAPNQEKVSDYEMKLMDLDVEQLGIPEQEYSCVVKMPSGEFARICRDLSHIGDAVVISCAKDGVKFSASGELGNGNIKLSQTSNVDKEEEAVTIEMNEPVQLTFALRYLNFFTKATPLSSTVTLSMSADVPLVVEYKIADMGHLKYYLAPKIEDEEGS
# Test: ITC
row,Kd,Binder
1,0.275 µM,B1
2,17.3 µM,B2
3,5.45 µM,B3
